Test results reported in publication PMC12151148.

Assays:
[1] = molecular target: FL-LGN (mouse); assay: ITC; 25°C; 50 mM Tris (pH 8.0), 100 mM NaCl, 1 mM EDTA; one protein (0.2 mM) injected into another (0.02 mM); one-site binding model
[2] = molecular target: LGN-GL1234 (483–650) (mouse); assay: as above
[3] = molecular target: FL-AGS3 (mouse); assay: as above
[4] = molecular target: AGS3-TPR (1–405) (mouse); assay: ITC; 25°C; 50 mM Tris (pH 8.0), NaCl raised to 300 mM for AGS3-TPR or AGS3-L, 1 mM EDTA; one protein (0.2 mM) injected into another (0.02 mM); one-site binding model

Chain of Gαi3⋅GDP (P08754 whole entry): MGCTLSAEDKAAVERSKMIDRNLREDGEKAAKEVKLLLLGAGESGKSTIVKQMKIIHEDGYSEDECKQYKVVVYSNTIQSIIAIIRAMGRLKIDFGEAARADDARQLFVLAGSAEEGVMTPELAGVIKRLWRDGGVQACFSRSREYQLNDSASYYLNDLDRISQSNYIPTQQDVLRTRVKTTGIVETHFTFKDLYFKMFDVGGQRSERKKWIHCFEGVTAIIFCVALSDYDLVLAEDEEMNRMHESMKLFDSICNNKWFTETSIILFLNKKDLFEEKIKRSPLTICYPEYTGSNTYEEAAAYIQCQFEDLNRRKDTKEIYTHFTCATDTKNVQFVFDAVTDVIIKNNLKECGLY

“Gαi3⋅GDP (from UniProt P08754 1-354) (natural protein)” was tested, and the Kd [1] was 1170 nM, the stoichiometry N (Gαi3⋅GDP per GoLoco domain) [2] was 4 and the Kd [3] was 1600 nM.
“AGS3-GL1234 (470–631) (domain or fragment)” gave a Kd [4] of 170 nM.
